Key:
[1] = test system: human colonic Caco2 (C2) cell monolayers; experiment: Tight junction recovery after low-calcium disruption, ZO-1 confocal microscopy; assay type: cell-based; settings: low-calcium medium (3 μM) 1 hour, assessed 2 hours after addition; AMP peptide 8 μg/ml, KGF-1 100 ng/ml, EGF 100 ng/ml
Procedure: The AMP77-97 peptide prevented decreases in TJ proteins and epithelial integrity seen after treatment of human colonic Caco2 (C2) cell monolayers with the oxidant monochloramine, which disrupts intercellular junctions (FIG. 2; C,D). These cells were exposed to low-calcium medium (3 μM) for 1 hr to disrupt TJs, and then allowed to recover in medium containing AMP77-97 peptide, epidermal growth factor (EGF) or keratinocyte growth factor (KGF-1) which are known epithelial cell mitogens that might facilitate recovery of disrupted TJs. […] At the molecular level, AMP77-97 peptide facilitates the formation of TJs by enhancing translocation of several proteins (protein kinase C-zeta, Par6, Cdc42, ECT2 and Par3) from the cytosol into TJ domains.
Localization of the tight junction protein ZO-1 was monitored by indirect immunofluorescence laser scanning confocal microscopy in confluent monolayers of C2 cells. […] To disrupt tight junctions, cells were switched to low-calcium medium (3 μM) for 1 hour. Then a growth factor at a known mitogenic concentration was added to the medium, and 2 hours later its effect on tight junction formation was assessed by confocal microscopy. Vehicle, AMP peptide (8 μg/ml), KGF-1 (100 ng/ml), and EGF (100 ng/ml) were compared.

[2] = test system: stomach and intestinal epithelial cells; experiment: Mitogenic and physiological effects on stomach and intestinal epithelial cells; assay type: cell-based
From the text: The synthesis of AMP-18 is confined to lumenal mucosal lining epithelial cells of the gastric antrum of humans and other mammals. Inside cells the protein is co-localized with mucins in secretion granules, and appears to be secreted into the mucus overlying the apical plasma membrane. […] These include mitogenesis, restitution, maturation of barrier function, and cell protection after oxidant, non-steroidal anti-inflammatory (NSAID), and DSS-mediated injury. Certain of these physiological effects can occur at concentrations that are relatively low for rhAMP-18 (<50 μM) compared to the concentrations of other gastric peptide mediators such as trefoil peptides or the α-defensin, cryptdin 3 (>100 μM). […] AMP-18 likely plays a role in physiological and pathological processes such as wound healing in the gastric mucosal epithelium in vivo as may occur in gastritis secondary to NSAID drugs, other pharmaceutical agents and alcohol, ulcer disease, and the consequences of H. pylori infection and inflammation.

| Molecule | formation of new tight junctions / localization of ZO-1 [1] | concentration for mitogenic effect relative to growth-promoting synthetic peptides ([2]; recombinant protein prepared in E. coli) | concentrations at which physiological effects occur ([2]; rhAMP-18) [μM] |
| --- | --- | --- | --- |
| KGF-1: keratinocyte growth factor, known epithelial cell mitogen (protein, UniProt P21781 32-194, looked up) Fibroblast growth factor 7: CNDMTPEQMATNVNCSSPERHTRSYDYMEGGDIRVRRLFCRTQWYLRIDKRGKVKGTQEMKNNYNIMEIRTVAVGIVAIKGVESEFYLAMNKEGKLYAKKECNEDCNFKELILENHYNTYASAKWTHNGGEMFVALNQKGIPVRGKKTKKEQKTAHFLPMAIT | persistent separation of cells with TJ disruption and apparent loss of ZO-1 | – | – |
| rhAMP-18: recombinant human AMP-18 prepared in E. coli; Antrum Mucosal Protein-18 (gastrokine-1) (protein, UniProt Q9NS71 21-185, looked up) Gastrokine-1: NYNINVNDDNNNAGSGQQSVSVNNEHNVANVDNNNGWDSWNSIWDYGNGFAATRLFQKKTCIVHKMNKEVMPSIQSLDALVKEKKLQGKGPGGPPPKGLMYSVNPNKVDDLSKFGKNIANMCRGIPTYMAEEMQEASLFFYSGTCYTTSVLWIVDISFCGDTVEN | – | an order of magnitude lower | < 50 |

From US8017576B2, “Methods and compositions to treat mucositis” (The University of Chicago, priority 2005, dated 2011)
